Reference: patent US12186353B2, “Method of reducing neuronal microtubule binding protein Tau (Tau) levels” (ADAERATA, LIMITED PARTNERSHIP, priority 2018, dated 2025)

Assays:
Type in all cases: cell-based
Tau [1] = assay: Western blot of Tau fusion protein levels in HEK293T cells co-expressing Numb isoforms; conditions: 48 hours after transfection
Excerpt: (§1) FIGS. 6A-I: Isoform Numb-72 interacts with Tau and regulates Tau level. FIG. 6A. Schematic of 4 Numb isoforms, differing with the presence or the absence of an insertion (arrowhead) in PTB domain arrowhead, and the presence or the absence of an insertion in the proline-rich region (PRR). FIG. 6B. Coimmunoprecipitation of Tau and 4 isoforms of Numb in HEK293 cells. Each Numb isoform was transfected in HEK293T cells together with a flag-tagged version of Tau and immunoprecipitation was perform 24 hours later with a flag antibody and blotted for Numb. […] FIG. 6C. Detection of Tau::GFP level in presence of 4 isoforms of Numb by western blot in HEK293. All the Numb isoforms were transfected with a Tau::GFP fusion protein in HEK293T cells and the levels of Tau::GFP was analysed by western blot 48 hours after transfection. FIG. 6D. Schematic representation of DNA construct of a human-medulloblastoma-derived cell line (DAOY) expressing human Tau fused with EGFP (Lasagna-Reeves et al., 2016). Additionally, this cell line expresses DsRed upstream of an internal ribosomal entry site (IRES), which is translated independently of the Tau-GFP protein. DsRed-IRES-Tau::EGFP expressing cells were used to assess the abundance of Tau by monitoring the Tau-GFP to DsRed fluorescence ratio. FIG. 6E. DsRed and Tau::EGF expression in Daoy cells, transfected with Myc only construct. FIGS. 6F-J. Fluorescence-activated cell sorting (FACs) analysis of the 4 Numb isoforms affected 3 days after transfection on ratio DsRed versus DsRed and GFP-positives cells compared to the control (Myc-Tag). FIG. 6K Quantification represents fold change for 5 experiments, +/− SEM, **p≤0.001; n.s. non-significant Anova 1-way test.
Numb72::Myc. HEK293T cells were transfected with Jet Prime using the following constructs Tau::Flag, Tau::GFP, Numb65, Numb66, Numb71 and Numb72.
Cells were harvested, and lysed in a NP-40 buffer (50 mm TRIS, pH 8.0, 150 mm NaCl, 1.0% NP-40 with Complete Protease Inhibitor Cocktail (Roche)). For immunoblotting, 40 μg of protein samples for in vivo blot and 10 ug for in vitro blot were loaded on a 10% acrylamide SDS-PAGE gels for separation by electrophoresis migration and then transferred onto PVDF membranes using transblot machine (Millipore). […] The primary antibody was detected with an HRP-conjugated goat anti-rabbit (1:10,000; Jackson Immunoresearch) in 0.5% dry milk in TBST. […]
To determine whether increasing the levels of Numb could affect the levels of Tau, the inventors co-expressed all isoforms of Numb together with a Tau::Venus fusion protein in HEK293T cells and analyzed the levels of Tau::Venus by western blot 48 hours after transfection.

human Tau fused with GFP = assay: Flow cytometry of Tau-GFP over DsRed in DAOY cells transfected with Numb isoforms; conditions: three days after transfection, compared to controls (Myc-Tag)
Excerpt: as §1, with “Schematic representation of DNA construct of a human-medulloblastoma-derived cell line (DAOY) expressing human Tau fused with EGFP (Lasagna-Reeves et al., 2016). Additionally, this cell line expresses DsRed upstream of an internal ribosomal entry site (IRES), which is translated independently of the Tau-GFP protein.” left out, “FIG. 6E. DsRed and Tau::EGF expression in Daoy cells, transfected with Myc only construct.” left out, “test. […]” for “test.”

Tau [2] = assay: Dot blot of monomeric and oligomeric Tau in the media of HEK293T cells expressing Tau; conditions: media collected 24 h after doxycycline, vs GFP control
Method: FIGS. 9A-B: Numb72 stimulates secretion of the monomeric form of Tau in the extracellular media in cell lines, but not oligomeric (toxic) Tau. FIG. 9A. Dot blot of monomeric Tau levels (5A6) and oligomer of Tau (T22) in the media of HEK293T stable inducible cells line expressing Tau transfected with either GFP (Control) or Numb72. Tau expression was activated by adding Doxycycline 6 h after transfection and the media collected 24 h later for Dot-blot. FIG. 9B. Quantification of extracellular Tau levels; data are mean±SEM, n.s non-significant; *p<0.05. Student's t test, n=6 for Tau5A6 and n=4 for T22.
The impact of Numb on the secretion of monomeric and oligomeric Tau was assessed. A cell line (HEK293T) expressing Tau was transfected with either GFP (Control) or Numb72, and the monomeric Tau (5A6) and oligomeric Tau (T22) levels were assessed in the cell media by dot blot assay on the collected culture medium.

B1: Numb-72: 72 kDa Numb isoform with long PTB domain and long PRR; human isoform 1 (SEQ ID NO: 1); expressed by transfection (protein)
chain: MNKLRQSFRRKKDVYVPEASRPHQWQTDEEGVRTGKCSFPVKYLGHVEVDESRGMHICEDAVKRLKAERKFFKGFFGKTGKKAVKAVLWVSADGLRVVDEKTKDLIVDQTIEKVSFCAPDRNFDRAFSYICRDGTTRRWICHCFMAVKDTGERLSHAVGCAFAACLERKQKREKECGVTATFDASRTTFTREGSFRVTTATEQAEREEIMKQMQDAKKAETDKIVVGSSVAPGNTAPSPSSPTSPTSDATTSLEMNNPHAIPRRHAPIEQLARQGSFRGFPALSQKMSPFKRQLSLRINELPSTMQRKTDFPIKNAVPEVEGEAESISSLCSQITNAFSTPEDPFSSAPMTKPVTVVAPQSPTFQANGTDSAFHVLAKPAHTALAPVAMPVRETNPWAHAPDAANKEIAATCSGTEWGQSSGAASPGLFQAGHRRTPSEADRWLEEVSKSVRAQQPQASAAPLQPVLQPPPPTAISQPASPFQGNAFLTSQPVPVGVVPALQPAFVPAQSYPVANGMPYPAPNVPVVGITPSQMVANVFGTAGHPQAAHPHQSPSLVRQQTFPHYEASSATTSPFFKPPAQHLNGSAAFNGVDDGRLASADRHTEVPTGTCPVDPFEAQWAALENKSKQRTNPSPTNPFSSDLQKTFEIEL
modifications: homo sapiens
notes: 72 kDa Numb isoform with long PTB domain and long PRR; expressed by transfection
levels of Tau::Venus by western blot (Tau [1]): significantly reduced the levels of Tau | proportion of cells with low levels of Tau-GFP (Tau-GFP over DsRed) (human Tau fused with GFP): increased the proportion of cells with low levels of Tau-GFP | secretion of monomeric Tau (5A6) in the cell media (Tau [2]): stimulates the secretion of monomeric Tau | secretion of oligomeric Tau (T22) in the cell media (Tau [2]): not of toxic (oligomeric) Tau
